Measurements from patent US20100003264A1, “Reduction of Ophthalmalogic Neovascularization” (WASHINGTON UNIVERSITY, priority 2005, published 2010).
Entries after “also recorded” stand apart in the source; their conditions may differ.

Tested on: choroidal neovascularization
Experiment: laser-induced choroidal neovascularization in mice, volume of the neovascular complex
Type: in vivo
Conditions: IL-10 knockout mice, IL-10 intravitreally on day of laser or three days after laser
Method: Volume of the neovascular complex was examined in IL-10 knockout mice. Knockout mice were purchased commercially (NCI, Frederick, Md.). All work was carried out per the ARVO guidelines for animal use in research. Rupture of Bruch's membrane with laser was used to initiate chorioretinal neovascularization in 5-7 week old mice as described in Nambu et al. ((2003) Invest Ophthalmol Vis Sci 44: 3650). Seven days after laser, the mice were anesthetized and perfused intraventricularly with fluorescein-labeled dextran. The mice were euthanized with CO2 inhalation and the eyes harvested for tissue processing. A dissecting microscope was used to remove the cornea and lens and gently separate the retina from the underlying choroid and sclera. Microscissors were used to make four radial incisions in the sclerochoroidal ‘eyecup’ in order to prepare choroidal flat mounts on glass slides. The tissues were incubated in 4% paraformaldehyde for 45 minutes and washed three times with 3% bovine serum albumin. […] The choroidal flat mounts were analyzed for presence of CNV by confocal microscopy. Extent of choroidal neovascularization was quantified by Metamorph™ imaging software. […]
Macrophages were used to proactively treat the formation of blood vessels in the eye. […] Choroidal neovascularization was analyzed on day 7. […]

B1: IL-10: cytokine produced by activated macrophages and some helper T cells; injected exogenously into eyes of IL-10 knockout mice (protein, UniProt P18893 19-178, looked up)
Interleukin-10: SRGQYSREDNNCTHFPVGQSHMLLELRTAFSQVKTFFQTKDQLDNILLTDSLMQDFKGYLGCQALSEMIQFYLVEVMPQAEKHGPEIKEHLNSLGEKLKTLRMRLRRCHRFLPCENKSKAVEQVKSDFNKLQDQGVYKAMNEFDIFINCIEAYMMIKMKS
  choroidal neovascularization (volume of the neovascular complex): reversed the inhibition choroidal neovascularization; also recorded: increased new vessel formation
Listed as Exogenous IL-10
  choroidal neovascularization (volume of the neovascular complex): reversed the inhibition choroidal neovascularization
